Test in all cases: cell-based or functional assay
Test [1] has as its target hGLP-1R (Homo sapiens, UniProt P43220).
The target in test [2] is T1, human GIP receptor (human) (UniProt P48546).
T1 sequence (looked up): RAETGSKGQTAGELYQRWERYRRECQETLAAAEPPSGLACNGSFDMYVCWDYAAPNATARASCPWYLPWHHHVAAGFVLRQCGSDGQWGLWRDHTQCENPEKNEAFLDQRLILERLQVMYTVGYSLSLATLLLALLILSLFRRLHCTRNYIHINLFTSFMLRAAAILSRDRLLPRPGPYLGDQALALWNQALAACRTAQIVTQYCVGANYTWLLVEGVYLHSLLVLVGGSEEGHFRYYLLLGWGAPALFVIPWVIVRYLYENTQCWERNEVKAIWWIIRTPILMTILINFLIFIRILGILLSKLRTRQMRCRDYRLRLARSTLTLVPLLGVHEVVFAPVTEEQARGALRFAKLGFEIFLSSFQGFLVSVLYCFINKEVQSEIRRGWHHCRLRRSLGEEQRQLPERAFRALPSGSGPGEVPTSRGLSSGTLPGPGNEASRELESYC

Test [3] deals with human glucagon receptor (human) (UniProt P47871).
human glucagon receptor (human), sequence (P47871 26-477): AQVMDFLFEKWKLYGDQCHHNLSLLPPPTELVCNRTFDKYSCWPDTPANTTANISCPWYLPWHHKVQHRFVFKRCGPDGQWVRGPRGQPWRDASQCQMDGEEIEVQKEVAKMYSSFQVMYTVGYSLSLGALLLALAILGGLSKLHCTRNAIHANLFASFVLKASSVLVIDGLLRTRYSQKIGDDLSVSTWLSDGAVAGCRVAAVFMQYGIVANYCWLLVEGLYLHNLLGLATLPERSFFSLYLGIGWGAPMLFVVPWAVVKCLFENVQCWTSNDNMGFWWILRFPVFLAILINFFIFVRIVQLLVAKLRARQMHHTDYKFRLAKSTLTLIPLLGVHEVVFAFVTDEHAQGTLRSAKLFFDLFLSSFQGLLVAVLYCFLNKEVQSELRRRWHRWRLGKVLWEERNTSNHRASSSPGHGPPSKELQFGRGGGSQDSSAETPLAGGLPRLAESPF

Numbering of substitutions follows the chain as printed.

hGLP-1R, sequence (P43220 24-463): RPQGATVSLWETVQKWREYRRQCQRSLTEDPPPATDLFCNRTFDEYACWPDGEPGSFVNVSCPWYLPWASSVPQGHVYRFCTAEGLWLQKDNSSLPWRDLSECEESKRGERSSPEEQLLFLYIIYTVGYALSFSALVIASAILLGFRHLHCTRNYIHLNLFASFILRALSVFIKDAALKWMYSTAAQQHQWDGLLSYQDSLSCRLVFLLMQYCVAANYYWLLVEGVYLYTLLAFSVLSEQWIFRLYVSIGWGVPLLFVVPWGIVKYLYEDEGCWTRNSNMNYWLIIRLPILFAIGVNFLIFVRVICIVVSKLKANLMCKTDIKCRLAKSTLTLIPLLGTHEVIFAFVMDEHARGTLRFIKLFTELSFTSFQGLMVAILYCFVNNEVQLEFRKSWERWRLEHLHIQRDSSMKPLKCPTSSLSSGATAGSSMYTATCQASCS

B1: Example 503 (peptide)
chain: YXQGTXTSDXXIXLDXKAQXXFIEXLQEGGPSSGEPPPEGTE
modifications: synthetic construct; SITE 2: note = 2-Aminoisobutyric Acid; SITE 6: note = alpha-methyl-2-fluoro-L-phenylalanine; SITE 10: note = 3-(4-Pyridyl)-L-alanine; SITE 11: note = alpha-methyl-L-serine; SITE 13: note = alpha-methyl-leucine; SITE 16: note = L-ornithine; SITE 17: note = Lysine is chemically mo
Regarding B1, the Relative cAMP EC50 in test [1] came out at 0.525 nM; in test [2], 0.0518 nM; in test [3], 3.98 nM. In addition, the results for the cAMP Rel EC50 (1% HSA) in test [1], in test [2] and in test [3] were 26.1 nM, 2.02 nM and 233 nM, respectively.

B2: Example 504 (peptide)
chain: B1 chain with E39S
modifications: synthetic construct; SITE 2: note = 2-Aminoisobutyric Acid; SITE 6: note = alpha-methyl-2-fluoro-L-phenylalanine; SITE 10: note = 3-(4-Pyridyl)-L-alanine; SITE 11: note = alpha-methyl-L-serine; SITE 13: note = alpha-methyl-leucine; SITE 16: note = L-ornithine; SITE 17: note = Lysine is chemically mo
As for B2, the values for the Relative cAMP EC50 in test [1], in test [2] and in test [3] were 0.253 nM, 0.0364 nM and 2.83 nM, respectively. Further, the cAMP Rel EC50 (1% HSA) in test [1] is 16.5 nM; in test [2], 1.8 nM; in test [3] it was 162 nM.

B3: Example 526 (peptide)
chain: B1 chain with X21N
modifications: synthetic construct; SITE 2: note = 2-Aminoisobutyric Acid; SITE 6: note = alpha-methyl-2-fluoro-L-phenylalanine; SITE 10: note = 3-(4-Pyridyl)-L-alanine; SITE 11: note = alpha-methyl-L-serine; SITE 13: note = alpha-methyl-leucine; SITE 16: note = L-ornithine; SITE 17: note = Lysine is chemically mo
On to B3, for which the Relative cAMP EC50 in test [1] is 0.421 nM; in test [2], 0.0364 nM; in test [3] it was 8.62 nM. Moreover, the cAMP Rel EC50 (1% HSA) in test [1] is 22.9 nM; in test [2], 2.12 nM; in test [3] it was 530 nM.

B4: Example 522 (peptide)
chain: B1 chain with X25Y, Q27I, E39S
modifications: not fully specified; printed without C-terminal amide; synthetic construct; SITE 2: note = 2-Aminoisobutyric Acid; SITE 6: note = alpha-methyl-2-fluoro-L-phenylalanine; SITE 10: note = 3-(4-Pyridyl)-L-alanine; SITE 11: note = alpha-methyl-L-serine; SITE 13: note = alpha-methyl-leucine; SITE 16: note = L-ornithine; SITE 17: note = Lysine is chemically mo
With B4, the Relative cAMP EC50 amounted to 0.51 nM in test [1], 0.033 nM in test [2] and 6.32 nM in test [3]. Also, the cAMP Rel EC50 (1% HSA) in test [1] was 35.5 nM; in test [2], 1.95 nM; in test [3], 441 nM.

B5: Example 528 (peptide)
chain: B1 chain with X21Q
modifications: synthetic construct; SITE 2: note = 2-Aminoisobutyric Acid; SITE 6: note = alpha-methyl-2-fluoro-L-phenylalanine; SITE 10: note = 3-(4-Pyridyl)-L-alanine; SITE 11: note = alpha-methyl-L-serine; SITE 13: note = alpha-methyl-leucine; SITE 16: note = L-ornithine; SITE 17: note = Lysine is chemically mo
Regarding B5, the Relative cAMP EC50 came out at 0.434 nM in test [1], 0.0333 nM in test [2] and 7 nM in test [3]. Also, the cAMP Rel EC50 (1% HSA) in test [1] was determined as 24.3 nM; in test [2] it was 1.55 nM; in test [3], 474 nM.

B6: Example 497 (peptide)
chain: YXQGTFTSDXSXXLDKKAQXAFIEXLIEGGPSSGAPPPSGS
modifications: synthetic construct; SITE 2: note = 2-Aminoisobutyric Acid; SITE 10: note = 3-(4-Pyridyl)-L-alanine; SITE 12: note = L-ornithine; SITE 13: note = alpha-methyl-leucine; SITE 17: note = Lysine is chemically modified through conjugation of the epsilon-amino group of the Lysine side chain with (2-[2-(2-
Regarding B6, the Relative cAMP EC50 in test [1] is 1.08 nM; in test [2], 0.297 nM; in test [3] it was 2.7 nM. Besides, the results for the cAMP Rel EC50 (1% HSA) in test [1], in test [2] and in test [3] were 161 nM, 32.6 nM and 418 nM, respectively.

B7: Example 486 (peptide)
chain: YXQGTXTSDXSIXLDXKAQXAFIEYLEEGGPSSGEPPPS
modifications: synthetic construct; SITE 2: note = 2-Aminoisobutyric Acid; SITE 6: note = alpha-methyl-2-fluoro-L-phenylalanine; SITE 10: note = 3-(4-Pyridyl)-L-alanine; SITE 13: note = alpha-methyl-leucine; SITE 16: note = L-ornithine; SITE 17: note = Lysine is chemically modified through conjugation of the epsil
Take B7: the Relative cAMP EC50, nM (0.1% casein) in test [1] turned out to be 0.375 nM; in test [2], 0.0262 nM; in test [3], 4.43 nM. Moreover, the cAMP Rel EC50 (receptor-expressing HEK-293 cells, 1% HSA) in test [1] is 35 nM; in test [2], 2.57 nM; in test [3], 647 nM.

B8: Example 487 (peptide)
chain: B7 chain with X16K, S39E
modifications: synthetic construct; SITE 2: note = 2-Aminoisobutyric Acid; SITE 6: note = alpha-methyl-2-fluoro-L-phenylalanine; SITE 10: note = 3-(4-Pyridyl)-L-alanine; SITE 13: note = alpha-methyl-leucine; SITE 17: note = Lysine is chemically modified through conjugation of the epsilon-amino group of the Lysine
In the case of B8, the Relative cAMP EC50, nM (0.1% casein) stood at 0.639 nM in test [1], 0.0286 nM in test [2] and 5.36 nM in test [3]. In addition, the results for the cAMP Rel EC50 (receptor-expressing HEK-293 cells, 1% HSA) in test [1], in test [2] and in test [3] were 27.7 nM, 2.26 nM and 477 nM, respectively.

B9: Example 495 (peptide)
chain: B7 chain with X16K, E35A, S39E
modifications: synthetic construct; SITE 2: note = 2-Aminoisobutyric Acid; SITE 6: note = alpha-methyl-2-fluoro-L-phenylalanine; SITE 10: note = 4-nitro-L-phenylalanine; SITE 13: note = alpha-methyl-leucine; SITE 17: note = Lysine is chemically modified through conjugation of the epsilon-amino group of the Lysine
For the molecule B9, the results for the Relative cAMP EC50, nM (0.1% casein) in test [1], in test [2] and in test [3] were 0.274 nM, 0.0361 nM and 1.75 nM, respectively. The cAMP Rel EC50 (receptor-expressing HEK-293 cells, 1% HSA) was found to be 53.8 nM in test [1], 5.74 nM in test [2] and 205 nM in test [3].

B10: Example 523 (peptide)
chain: YXQGTXTSDXXIXLDXKAQXXFIEYLIEGGPSSGEPPPSGTGE
modifications: synthetic construct; SITE 2: note = 2-Aminoisobutyric Acid; SITE 6: note = alpha-methyl-2-fluoro-L-phenylalanine; SITE 10: note = 3-(4-Pyridyl)-L-alanine; SITE 11: note = alpha-methyl-L-serine; SITE 13: note = alpha-methyl-leucine; SITE 16: note = L-ornithine; SITE 17: note = Lysine is chemically mo
In the case of B10, the Relative cAMP EC50 in test [1] came to 0.482 nM; in test [2] it was 0.021 nM; in test [3], 3.79 nM. The cAMP Rel EC50 (1% HSA) in test [1] came out at 27.1 nM; in test [2] it was 0.869 nM; in test [3] it was 234 nM.

Values taken from patent US20240270821A1, “GIP/GLP1/GCG TRI-RECEPTOR AGONISTS AND USES THEREOF” (priority 2023, published 2024).
